Publication PMC10786891, “Massively parallel profiling of RNA-targeting CRISPR-Cas13d”

Target: T1, EsCas13d, nuclease-dead (Eubacterium siraeum, UniProt B0MS50, R295A;H300A;R849A;H854A)
T1 sequence: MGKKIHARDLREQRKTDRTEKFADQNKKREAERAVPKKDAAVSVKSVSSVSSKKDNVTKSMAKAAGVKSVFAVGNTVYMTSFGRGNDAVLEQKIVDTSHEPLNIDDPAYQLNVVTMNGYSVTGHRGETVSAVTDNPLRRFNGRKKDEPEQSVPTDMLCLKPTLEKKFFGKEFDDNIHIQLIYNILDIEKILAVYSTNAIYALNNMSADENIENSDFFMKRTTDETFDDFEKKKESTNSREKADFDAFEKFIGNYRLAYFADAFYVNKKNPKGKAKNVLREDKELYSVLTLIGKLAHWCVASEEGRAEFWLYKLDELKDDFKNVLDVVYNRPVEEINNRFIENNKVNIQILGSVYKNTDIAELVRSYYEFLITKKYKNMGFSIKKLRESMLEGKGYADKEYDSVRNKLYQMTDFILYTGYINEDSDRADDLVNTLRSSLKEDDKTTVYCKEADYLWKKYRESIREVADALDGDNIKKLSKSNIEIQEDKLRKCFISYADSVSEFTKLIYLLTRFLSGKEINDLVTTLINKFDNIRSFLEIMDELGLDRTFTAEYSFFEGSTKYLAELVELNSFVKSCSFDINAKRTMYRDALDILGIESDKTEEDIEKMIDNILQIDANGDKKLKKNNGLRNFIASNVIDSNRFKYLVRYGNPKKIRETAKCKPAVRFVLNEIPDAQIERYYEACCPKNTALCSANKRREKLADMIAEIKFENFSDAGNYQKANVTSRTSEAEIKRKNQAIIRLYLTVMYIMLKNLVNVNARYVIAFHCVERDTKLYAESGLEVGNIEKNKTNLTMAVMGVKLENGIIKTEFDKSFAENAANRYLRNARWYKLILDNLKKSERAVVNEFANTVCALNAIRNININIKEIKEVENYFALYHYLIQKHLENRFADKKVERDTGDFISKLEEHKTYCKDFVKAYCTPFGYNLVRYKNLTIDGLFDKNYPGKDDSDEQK
Test: crRNA (strand 1, pre-loaded); Mg2+; 40 mM Tris-HCl pH 7.5, 150 mM NaCl, 6 mM MgCl2, 1 mM DTT, 0.1% Tween-20, 0.2 mg/ml BSA; 25 C; 10 min per concentration, then washed
Conditions: tags: His6-TwinStrep-SUMO cleaved; N-terminal SNAP kept (SNAP-Surface 488); label: 3' end held by stalled T7 RNA polymerase

B1: target 1 insA 3' of 22,insG 3' of 14 (mixed)
RNA 1: CACCCGUGCAAAAAUGCAGGGGUCUAAAACUGAGCGGAUAACCUCUCUAUGG
RNA 2: GGGAAUGGAUCCACAUCUACGAAUUCGUACACAUAGAGAGGGUUAUCCGCUCACCGAGAUCGGAAGAGCACACGU
Kd: 0.0217 ± 0.0032 µM

B2: target 1 insU 3' of 22,insG 3' of 20 (mixed)
RNA 1: CACCCGUGCAAAAAUGCAGGGGUCUAAAACUGAGCGGAUAACCUCUCUAUGG
RNA 2: GGGAAUGGAUCCACAUCUACGAAUUCGUACUCAGUAGAGAGGUUAUCCGCUCACCGAGAUCGGAAGAGCACACGU
Kd: 0.078 ± 0.024 µM

B3: target 1 G12U,G17U (mixed)
RNA 1: CACCCGUGCAAAAAUGCAGGGGUCUAAAACUGAGCGGAUAACCUCUCUAUGG
RNA 2: GGGAAUGGAUCCACAUCUACGAAUUCGUACCAUAUAGAGUUUAUCCGCUCACCGAGAUCGGAAGAGCACACGU
Kd: 0.0313 ± 0.0035 µM

B4: target 1 insC 3' of 13,insA 3' of 10 (mixed)
RNA 1: CACCCGUGCAAAAAUGCAGGGGUCUAAAACUGAGCGGAUAACCUCUCUAUGG
RNA 2: GGGAAUGGAUCCACAUCUACGAAUUCGUACCAUAGAGAGCGUUAAUCCGCUCACCGAGAUCGGAAGAGCACACGU
Kd: 0.0127 ± 0.0006 µM

B5: target 1 insU 3' of 18,insU 3' of 15 (mixed)
RNA 1: CACCCGUGCAAAAAUGCAGGGGUCUAAAACUGAGCGGAUAACCUCUCUAUGG
RNA 2: GGGAAUGGAUCCACAUCUACGAAUUCGUACCAUAUGAGUAGGUUAUCCGCUCACCGAGAUCGGAAGAGCACACGU
Kd: 0.05 ± 0.012 µM

B6: target 1 insU 3' of 21,insC 3' of 15 (mixed)
RNA 1: CACCCGUGCAAAAAUGCAGGGGUCUAAAACUGAGCGGAUAACCUCUCUAUGG
RNA 2: GGGAAUGGAUCCACAUCUACGAAUUCGUACCUAUAGAGCAGGUUAUCCGCUCACCGAGAUCGGAAGAGCACACGU
Kd: 0.055 ± 0.007 µM

B7: target 1 G5C,G12U (mixed)
RNA 1: CACCCGUGCAAAAAUGCAGGGGUCUAAAACUGAGCGGAUAACCUCUCUAUGG
RNA 2: GGGAAUGGAUCCACAUCUACGAAUUCGUACCAUAGAGAGUUUAUCCCCUCACCGAGAUCGGAAGAGCACACGU
Kd: 0.0087 ± 0.0006 µM

B8: target 1 insC 3' of 20,insA 3' of 5 (mixed)
RNA 1: CACCCGUGCAAAAAUGCAGGGGUCUAAAACUGAGCGGAUAACCUCUCUAUGG
RNA 2: GGGAAUGGAUCCACAUCUACGAAUUCGUACCACUAGAGAGGUUAUCCGACUCACCGAGAUCGGAAGAGCACACGU
Kd: 0.0073 ± 0.0011 µM

B9: target 1 U3C (mixed)
RNA 1: CACCCGUGCAAAAAUGCAGGGGUCUAAAACUGAGCGGAUAACCUCUCUAUGG
RNA 2: GGGAAUGGAUCCACAUCUACGAAUUCGUACCAUAGAGAGGUUAUCCGCCCACCGAGAUCGGAAGAGCACACGU
Kd: 0.0263 ± 0.0032 µM

B10: target 1 insA 3' of 15,insC 3' of 9 (mixed)
RNA 1: CACCCGUGCAAAAAUGCAGGGGUCUAAAACUGAGCGGAUAACCUCUCUAUGG
RNA 2: GGGAAUGGAUCCACAUCUACGAAUUCGUACCAUAGAGAAGGUUACUCCGCUCACCGAGAUCGGAAGAGCACACGU
Kd: 0.009 ± 0.0009 µM

B11: target 1 C2U,A14G (mixed)
RNA 1: CACCCGUGCAAAAAUGCAGGGGUCUAAAACUGAGCGGAUAACCUCUCUAUGG
RNA 2: GGGAAUGGAUCCACAUCUACGAAUUCGUACCAUAGAGGGGUUAUCCGCUUACCGAGAUCGGAAGAGCACACGU
Kd: 0.015 ± 0.0007 µM

B12: target 1 del9,del19 (mixed)
RNA 1: CACCCGUGCAAAAAUGCAGGGGUCUAAAACUGAGCGGAUAACCUCUCUAUGG
RNA 2: GGGAAUGGAUCCACAUCUACGAAUUCGUACCAAGAGAGGUUUCCGCUCACCGAGAUCGGAAGAGCACACGU
Kd: 0.086 ± 0.033 µM

B13: target 1 U3A,U11A (mixed)
RNA 1: CACCCGUGCAAAAAUGCAGGGGUCUAAAACUGAGCGGAUAACCUCUCUAUGG
RNA 2: GGGAAUGGAUCCACAUCUACGAAUUCGUACCAUAGAGAGGAUAUCCGCACACCGAGAUCGGAAGAGCACACGU
Kd: 0.0127 ± 0.0007 µM

B14: target 1 G13U,C21U (mixed)
RNA 1: CACCCGUGCAAAAAUGCAGGGGUCUAAAACUGAGCGGAUAACCUCUCUAUGG
RNA 2: GGGAAUGGAUCCACAUCUACGAAUUCGUACUAUAGAGAUGUUAUCCGCUCACCGAGAUCGGAAGAGCACACGU
Kd: 0.0105 ± 0.0009 µM

B15: target 1 insG 3' of 19,insA 3' of 8 (mixed)
RNA 1: CACCCGUGCAAAAAUGCAGGGGUCUAAAACUGAGCGGAUAACCUCUCUAUGG
RNA 2: GGGAAUGGAUCCACAUCUACGAAUUCGUACCAUGAGAGAGGUUAUACCGCUCACCGAGAUCGGAAGAGCACACGU
Kd: 0.057 ± 0.007 µM

B16: target 1 complement block 3-8 (mixed)
RNA 1: CACCCGUGCAAAAAUGCAGGGGUCUAAAACUGAGCGGAUAACCUCUCUAUGG
RNA 2: GGGAAUGGAUCCACAUCUACGAAUUCGUACCAUAGAGAGGUUAAGGCGACACCGAGAUCGGAAGAGCACACGU
Kd: 0.0099 ± 0.0004 µM

B17: target 1 U8G,A18G (mixed)
RNA 1: CACCCGUGCAAAAAUGCAGGGGUCUAAAACUGAGCGGAUAACCUCUCUAUGG
RNA 2: GGGAAUGGAUCCACAUCUACGAAUUCGUACCAUGGAGAGGUUAGCCGCUCACCGAGAUCGGAAGAGCACACGU
Kd: 0.066 ± 0.021 µM

B18: target 1 insG 3' of 19,insG 3' of 14 (mixed)
RNA 1: CACCCGUGCAAAAAUGCAGGGGUCUAAAACUGAGCGGAUAACCUCUCUAUGG
RNA 2: GGGAAUGGAUCCACAUCUACGAAUUCGUACCAUGAGAGAGGGUUAUCCGCUCACCGAGAUCGGAAGAGCACACGU
Kd: 0.075 ± 0.016 µM

B19: target 1 insU 3' of 14,insG 3' of 7 (mixed)
RNA 1: CACCCGUGCAAAAAUGCAGGGGUCUAAAACUGAGCGGAUAACCUCUCUAUGG
RNA 2: GGGAAUGGAUCCACAUCUACGAAUUCGUACCAUAGAGAUGGUUAUCGCGCUCACCGAGAUCGGAAGAGCACACGU
Kd: 0.0293 ± 0.0017 µM

B20: target 1 U10G,C21U (mixed)
RNA 1: CACCCGUGCAAAAAUGCAGGGGUCUAAAACUGAGCGGAUAACCUCUCUAUGG
RNA 2: GGGAAUGGAUCCACAUCUACGAAUUCGUACUAUAGAGAGGUGAUCCGCUCACCGAGAUCGGAAGAGCACACGU
Kd: 0.0117 ± 0.0008 µM

B21: target 1 insC 3' of 13,insC 3' of 12 (mixed)
RNA 1: CACCCGUGCAAAAAUGCAGGGGUCUAAAACUGAGCGGAUAACCUCUCUAUGG
RNA 2: GGGAAUGGAUCCACAUCUACGAAUUCGUACCAUAGAGAGCGCUUAUCCGCUCACCGAGAUCGGAAGAGCACACGU
Kd: 0.0177 ± 0.0012 µM

B22: target 1 C7A,U11A (mixed)
RNA 1: CACCCGUGCAAAAAUGCAGGGGUCUAAAACUGAGCGGAUAACCUCUCUAUGG
RNA 2: GGGAAUGGAUCCACAUCUACGAAUUCGUACCAUAGAGAGGAUAUACGCUCACCGAGAUCGGAAGAGCACACGU
Kd: 0.0179 ± 0.0013 µM

B23: target 1 A14C,G15U (mixed)
RNA 1: CACCCGUGCAAAAAUGCAGGGGUCUAAAACUGAGCGGAUAACCUCUCUAUGG
RNA 2: GGGAAUGGAUCCACAUCUACGAAUUCGUACCAUAGAUCGGUUAUCCGCUCACCGAGAUCGGAAGAGCACACGU
Kd: 0.035 ± 0.006 µM

B24: target 1 insA 3' of 19,insC 3' of 12 (mixed)
RNA 1: CACCCGUGCAAAAAUGCAGGGGUCUAAAACUGAGCGGAUAACCUCUCUAUGG
RNA 2: GGGAAUGGAUCCACAUCUACGAAUUCGUACCAUAAGAGAGGCUUAUCCGCUCACCGAGAUCGGAAGAGCACACGU
Kd: 0.07 ± 0.031 µM

B25: target 1 insC 3' of 5,insC 3' of 5 (mixed)
RNA 1: CACCCGUGCAAAAAUGCAGGGGUCUAAAACUGAGCGGAUAACCUCUCUAUGG
RNA 2: GGGAAUGGAUCCACAUCUACGAAUUCGUACCAUAGAGAGGUUAUCCGCCCUCACCGAGAUCGGAAGAGCACACGU
Kd: 0.0257 ± 0.0032 µM

B26: target 1 insG 3' of 19,insU 3' of 6 (mixed)
RNA 1: CACCCGUGCAAAAAUGCAGGGGUCUAAAACUGAGCGGAUAACCUCUCUAUGG
RNA 2: GGGAAUGGAUCCACAUCUACGAAUUCGUACCAUGAGAGAGGUUAUCCUGCUCACCGAGAUCGGAAGAGCACACGU
Kd: 0.082 ± 0.009 µM

B27: target 1 U10G,A20U (mixed)
RNA 1: CACCCGUGCAAAAAUGCAGGGGUCUAAAACUGAGCGGAUAACCUCUCUAUGG
RNA 2: GGGAAUGGAUCCACAUCUACGAAUUCGUACCUUAGAGAGGUGAUCCGCUCACCGAGAUCGGAAGAGCACACGU
Kd: 0.06 ± 0.018 µM

B28: target 1 G5A,U11C (mixed)
RNA 1: CACCCGUGCAAAAAUGCAGGGGUCUAAAACUGAGCGGAUAACCUCUCUAUGG
RNA 2: GGGAAUGGAUCCACAUCUACGAAUUCGUACCAUAGAGAGGCUAUCCACUCACCGAGAUCGGAAGAGCACACGU
Kd: 0.034 ± 0.004 µM
